Experimental data as given in the supplement of paper PMC10724198.
± gives the standard deviation of the averaged measurements.

Columns and labels:
Saccharomyces cerevisiae [1] = assay: protein stability index of tFT-peptide fusion in wild type (PSI (0-1 scale)); higher = more stable (slower turnover); conditions: genetic background: wild type
Saccharomyces cerevisiae [2] = assay: protein stability index of tFT-peptide fusion in deletion strain of DOA10 (PSI (0-1 scale)); higher = more stable (slower turnover)
Method: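 MPS profiling in S. cerevisiae of two library types built from selected 12-aa C-degron peptides (IN1, IN2, LN1, LN3, VN2, R1-R5, W1-W3, Atg1 and Rpa12 C-termini): saturation mutagenesis libraries and C-terminal +1 capping libraries (13 aa). Each peptide is fused to the C-terminus of a sfGFP-mCherry timer, after a GGGS linker. Cells are FACS-sorted into 8 mCherry/sfGFP bins and sequenced. PSI runs from 0 (unstable) to 1 (stable), measured once in wild type and in the das1Δ or doa10Δ background.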

Saccharomyces cerevisiae [3] = assay: protein stability index of tFT-peptide fusion (C-terminal peptide) (PSI (0-1 scale)); higher = more stable (slower turnover)
Method: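 MPS profiling in S. cerevisiae of the tFT-X12 degron library: putative degron peptides plus stable controls, 12 aa, fused to the C-terminus of a sfGFP-mCherry timer. Cells are FACS-sorted into 8 mCherry/sfGFP bins and deep-sequenced. PSI runs from 0 (unstable) to 1 (stable). Backgrounds are wild type, das1Δ and doa10Δ at 30 °C, and wild type, das1Δ, cdc34-1 and cdc53-1 at 37 °C; 2-3 technical replicates each.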

Saccharomyces cerevisiae [4] = assay: as above; conditions: genetic background: wild type; temperature: 30 C
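Throughout, for protein stability index of tFT-peptide fusion (C-terminal peptide): PSI is a weighted mean of sequencing reads over stability bins, variants kept only with over 10 reads, mCherry proximal and sfGFP distal, peptide attached via GGGS linker.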
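Throughout, for protein stability index of tFT-peptide fusion in deletion strain of DOA10: PSI per variant is the weighted mean of its sequencing read distribution over the sorted stability bins, counting only variants with over 10 reads summed across bins.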
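Throughout, for protein stability index of tFT-peptide fusion in wild type: PSI derived as read-weighted mean over the 8 sorting bins, only variants exceeding 10 total reads kept, mCherry placed adjacent to the peptide and sfGFP distal.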

Sequence	protein stability index (Saccharomyces cerevisiae [1])	protein stability index (Saccharomyces cerevisiae [2])	also measured
GLNMCSVGCWFR	0.264	0.673	
RVTRLDAIPFRI	0.69	0.724	
AITLPMCPLLLRI	0.0995	0.485	
GRYMCSVGCWFR	0.385	0.669	
QVTRLDAIYFRI	0.346	0.693	
RVTRLDRIYFRI	0.243	0.566	
CLVSLPILQFFR	0.623	0.66	
CLVSLPILLLFR	0.0579	0.579	
GLYMCSVGCWWR	0.355	0.634	
AITLPMCPLLLRE	0.488	0.634	
RSLRILLPLYFR	0.253	0.655	
RPLRVLLPLYFR	0.355	0.666	
GLYMCSVGCMFR	0.524	0.636	
AIELPMCPLLLR	0.221	0.677	
RVTRLDAIYFRIT	0.16	0.243	
CLVSLPTLLFFR	0.0585	0.663	
AITLPPCPLLLR	0.232	0.673	
AITLPMCPRLLR	0.648	0.675	
GLYMCSTGCWFR	0.37	0.684	
CLVSLQILLFFR	0.164	0.264	
AITLPMCPLLLRV	0.11	0.334	
RVTRLDAIYFLI	0.0749	0.119	
AITLPMCPLLLF	0.462	0.512	
RVTRLDMIYFRI	0.236	0.658	
AITLPMRPLLLR	0.176	0.637	
GLYMCSVTCWFR	0.265	0.327	

Sequence	protein stability index (Saccharomyces cerevisiae [1])	protein stability index (Saccharomyces cerevisiae [2])	also measured
RSLRVDLPLYFR	0.203	0.69	
CLVLLPILLFFR	0.0939	0.442	
GLYMCSVGCWFRT	0.227	0.554	
GLYMCSVGCWIR	0.179	0.402	
CCVSLPILLFFR	0.0702	0.606	
GLYMWSVGCWFR	0.278	0.601	
CLVSMPILLFFR	0.0734	0.601	
AITLPMCPCLLR	0.367	0.651	
RVTRLDAIQFRI	0.658	0.698	
CLVSLPILLFFP	0.495	0.588	
RSLRVLLPLYFRE	0.356	0.703	
GLYMDSVGCWFR	0.521	0.727	
CLVSLPILAFFR	0.151	0.613	
GLYMCSRGCWFR	0.436	0.677	
GLYMMSVGCWFR	0.26	0.604	
CLVSLVILLFFR	0.258	0.34	
CLVSLKILLFFR	0.189	0.282	
GLYMCSVGCWLR	0.212	0.537	
CVTRLDAIYFRI	0.194	0.71	
RSLRVLLPLYSR	0.609	0.642	
RVTRLDAIYARI	0.684	0.724	
QITLPMCPLLLR	0.288	0.645	
RVTGLDAIYFRI	0.534	0.683	
RVLRLDAIYFRI	0.376	0.666	
RSLRVLLPLYFR	0.289	0.66	protein stability index (Saccharomyces cerevisiae [3]; genetic background: cdc34-1, temperature: 37 C): 0.082 ± 0.034; protein stability index (Saccharomyces cerevisiae [3]; genetic background: cdc53-1, temperature: 37 C): 0.0762 ± 0.025; protein stability index (Saccharomyces cerevisiae [3]; genetic background: das1 deletion, temperature: 30 C): 0.234 ± 0.029; protein stability index (Saccharomyces cerevisiae [3]; genetic background: das1 deletion, temperature: 37 C): 0.271 ± 0.004; protein stability index (Saccharomyces cerevisiae [3]; genetic background: doa10 deletion, temperature: 30 C): 0.66 ± 0.029; protein stability index (Saccharomyces cerevisiae [3]; genetic background: wild type, temperature: 30 C): 0.234 ± 0.022; protein stability index (Saccharomyces cerevisiae [3]; genetic background: wild type, temperature: 37 C): 0.266 ± 0.043; protein stability index (Saccharomyces cerevisiae [4]): 0.3478 ± 0.0013
WITLPMCPLLLR	0.31	0.606	

Sequence	protein stability index (Saccharomyces cerevisiae [1])	protein stability index (Saccharomyces cerevisiae [2])	also measured
AQTLPMCPLLLR	0.394	0.686	
GLYMCSVGKWFR	0.637	0.674	
RSLRVLLPLDFR	0.666	0.723	
ISLRVLLPLYFR	0.286	0.588	
RLVSLPILLFFR	0.0755	0.614	
AITLPMCPGLLR	0.635	0.673	
RVTFLDAIYFRI	0.438	0.621	
GLYMVSVGCWFR	0.176	0.38	
AITLPACPLLLR	0.291	0.657	
CLVSLPILLFFY	0.232	0.435	
CLVSLPVLLFFR	0.0558	0.614	
CLVHLPILLFFR	0.0596	0.56	
TLVSLPILLFFR	0.0732	0.613	
RVTRLDAIFFRI	0.364	0.712	
RVTRLDAIYNRI	0.697	0.738	
RSLRVLLPLYHR	0.626	0.682	
ADTLPMCPLLLR	0.56	0.679	
AITLPECPLLLR	0.467	0.677	
AITLPMCPLLLRH	0.222	0.646	
RVSRLDAIYFRI	0.445	0.671	
RRTRLDAIYFRI	0.422	0.599	
RSLVVLLPLYFR	0.257	0.634	
AITLPMCPLLLRR	0.34	0.673	
CLVSYPILLFFR	0.0543	0.603	
